Reference: patent US10494417B2, “Peptide inhibitors of BCR-ABL oligomerization” (University of Utah Research Foundation, priority 2014, dated 2019)

Legend:
[1] = test system: CD34+ cells from newly diagnosed CML patients; experiment: Proliferation of lentivirus-infected CD34+ cells from newly diagnosed CML patients; format: cell-based, human; conditions: for cell growth, in words: lentiviral CCmut3 compared with EV cells treated with 2.5 μM imatinib
Method: Mononuclear cells (MNCs) were separated from the peripheral blood of patients with newly diagnosed or therapy-resistant CML with a documented T315I mutation, using Ficoll (Nycomed, Oslo, Norway). Isolation of the CD34^+ fraction was done on an autoMACS Pro (Miltenyi Biotech). CD34^+ progenitors were maintained at 1×10^6 cells/mL in RPMI1640 containing 20% FBS and 5 μL/mL StemSpan CC100 (Stem Cell Technologies, Vancouver, BC, Canada). Cells were infected with lentivirus at a multiplicity of infection (MOI) of 5 for each construct at 24 and 48 hours following harvest (fresh cells) or thaw (frozen cells). Cells were sorted on a BD FACSAria cytometer after 72 h, and GFP-positive cells were returned to culture medium for future experiments. All patients gave their informed consent in accordance with the Declaration of Helsinki, and all studies with human specimens were approved by The University of Utah Institutional Review Board (IRB).
Cell proliferation was assessed using the CellTiter 96® AQueous One Solution Cell Proliferation Assay (MTS assay, Promega) according to manufacturer instructions. […] In some experiments, cell proliferation was assessed using a Neubauer chamber and trypan blue dye exclusion.
Mononuclear cells (MNCs) from peripheral blood of patients with newly diagnosed or TKI-resistant CML were separated by Ficoll (Nycomed, Oslo, Norway), and the CD34+ fraction was isolated using an autoMACS Pro Separator (Miltenyi Biotech, San Diego, Calif., USA). Purity was determined to be >90% by flow cytometric analysis using a Guava 6HT flow cytometer (Millipore, Billerica, Mass., USA). […]
293FT cells (Life Technologies, Grand Island, N.Y., USA) were grown in DMEM with 10% FBS, 100 U/ml penicillin-streptomycin, 2 mM L-glutamine, 0.1 mM MEM-non-essential amino acids, and 1 mM sodium pyruvate (Life Technologies, Grand Island, N.Y., USA). […] Lentiviral titers were determined. […]
Cell proliferation was assessed using a […] viability assay (MTS assay) utilizing CellTiter 96® AQueous One Solution Cell Proliferation Assay (Promega) according to manufacturer instructions. […]

[2] = test system: Ba/F3-p210-T315I cells; experiment: Colony forming assay of Ba/F3 BCR-ABL1 T315I cells; format: cell-based, mouse; conditions: for colony formation, in words: CCmut3 gene delivery (transfection; b502 lentiviral infection) vs EV; for reduction in CFCs / colony forming ability: CCmut3 vs EV
Method: Both EGFP and EGFP-CC^mut3 were transfected into separate groups of cells on day 0. One day following transfection, 1.0×10^6 cells per treatment group were collected and re-suspended in 1.0 mL of PBS. Through serial dilutions, 1.0×10^3 cells in IMDM (Isocove's modified Dulbecco's media) with 2% FBS were seeded into methylcellulose medium in the absence of cytokines (MethoCult H4230 for K562 cells and MethoCult M3234 for p210 and p210-T315I cells) or in the presence of cytokines (MethoCult GF M3434 for parental Ba/F3 cells). Ponatinib was then added in the correct molar amounts (0, 100 pM, 1 nM, or 10 nM) to the methylcellulose medium. Colonies formed were counted after 7 days of incubation. All reagents were purchased from Stem Cell Technologies, Vancouver, BC, Canada. Assay was run three separate times (n=3) in duplicate.
Briefly, mCherry-positive Ba/F3 cells were re-suspended in IMDM with 2% FBS (Stem Cell Technologies) at a concentration of 10,000 cells/mL. Three hundred microliters of this dilution was added to 3 mL of Methocult media (M3434—Ba/F3 p210 wild-type and mutant lines or M3234—Ba/F3 parental, Stem Cell Technologies). Approximately 1100 cells, or 1.2 mL, were seeded per dish in duplicate for each transfection. Colonies were counted 7 days later in an area of 100 μm^2 per dish.
All cells were plated with or without the indicated TKI in three or more independent experiments. Plates were incubated at 37° C. in a 5% CO2 humidified incubator. Colonies were counted 7-14 days later in an area of 50 μm2 per dish using an inverted microscope.

[3] = test system: K562 cells; experiment: Cell proliferation (trypan blue) of protein-treated K562 cells; format: cell-based, human; conditions: proteins 30 μM or imatinib
Method: Independent treatments were tested three times (n=3).

B1: CCmut3: modified Bcr-Abl coiled-coil domain (residues 1-72) with mutations C38A, K39E, S41R, L45D, E48R, Q60E (protein)
chain: MVDPVGFAEAWKAQFPDSEPPRMELRSVGDIEQELERAEARIRRDEQRVNQERFRMIYLETLLAKEKKSYDR
cell growth, in words [1]: significant reduction compared to inhibition by imatinib | cell growth, in words ([1]; listed as CC^mut3): considerably more pronounced reduction of growth than observed with IM | reduction of cell proliferation/growth ([1]; lentiviral CCmut3 vs EV, trypan blue exclusion): more than 2 fold | reduction of transformative ability compared to EGFP control ([2]; CC^mut3 alone, Ba/F3-p210-T315I): ~40% | colony formation, in words [2]: significantly fewer colonies per unit area | colony formation, in words ([2]; listed as CC^mut3): Inhibition in colony formation | reduction in CFCs / colony forming ability [2]: > 10 fold | reduction in CFCs / colony forming ability ([2]; listed as CC^mut3): more than 10 fold | cell proliferation [3]: ineffective at reducing cell proliferation and colony forming compared to untreated cells
